According to article PMC6093294:

Key:
Test in all cases: purified protein
[1] = substrate: NC[C@H](O)c1ccc(O)cc1; format: biochemical, Bombyx mori; conditions: 100 μM oleoyl-CoA, 300 mM Tris pH 8.0, 150 μM DTNB, 22°C
[2] = substrate: CCCCCCCCCCCC(=O)SCCNC(=O)CCNC(=O)[C@H](O)C(C)(C)COP(=O)(O)OP(=O)(O)OC[C@H]1O[C@@H](n2cnc3c(N)ncnc32)[C@H](O)[C@@H]1OP(=O)(O)O; format: biochemical, Bombyx mori; conditions: 60 mM tryptamine, 300 mM Tris pH 8.0, 150 μM DTNB, 22°C
[3] = substrate: CCCCCCCCCCCCCC(=O)SCCNC(=O)CCNC(=O)[C@H](O)C(C)(C)COP(=O)(O)OP(=O)(O)OC[C@H]1O[C@@H](n2cnc3c(N)ncnc32)[C@H](O)[C@@H]1OP(=O)(O)O; format: biochemical, Bombyx mori; conditions: 60 mM tryptamine, 300 mM Tris pH 8.0, 150 μM DTNB, 22°C
[4] = substrate: NCCc1c[nH]c2ccccc12; format: biochemical, Bombyx mori; conditions: 100 μM oleoyl-CoA, 300 mM Tris pH 8.0, 150 μM DTNB, 22°C
[5] = substrate: CCCCC/C=C\C/C=C\C/C=C\C/C=C\CCCC(=O)SCCNC(=O)CCNC(=O)[C@H](O)C(C)(C)COP(=O)(O)OP(=O)(O)OC[C@H]1O[C@@H](n2cnc3c(N)ncnc32)[C@H](O)[C@@H]1OP(=O)(O)O; format: biochemical, Bombyx mori; conditions: 60 mM tryptamine, 300 mM Tris pH 8.0, 150 μM DTNB, 22°C
[6] = substrate: NCCc1ccc(O)cc1; format: biochemical, Bombyx mori; conditions: 100 μM oleoyl-CoA, 300 mM Tris pH 8.0, 150 μM DTNB, 22°C
[7] = substrate: CCCCCCCC/C=C\CCCCCCCC(=O)SCCNC(=O)CCNC(=O)[C@H](O)C(C)(C)COP(=O)(O)OP(=O)(O)OC[C@H]1O[C@@H](n2cnc3c(N)ncnc32)[C@H](O)[C@@H]1OP(=O)(O)O; format: biochemical, Bombyx mori; conditions: 60 mM tryptamine, 300 mM Tris pH 8.0, 150 μM DTNB, 22°C
[8] = substrate: CCCCCCCCCCCCCCCC(=O)SCCNC(=O)CCNC(=O)[C@H](O)C(C)(C)COP(=O)(O)OP(=O)(O)OC[C@H]1O[C@@H](n2cnc3c(N)ncnc32)[C@H](O)[C@@H]1OP(=O)(O)O; conditions: 60 mM tryptamine, 300 mM Tris pH 8.0, 150 μM DTNB, 22°C

B1: Bm-iAANAT (insect arylalkylamine N-acyltransferase from Bombyx mori) (Bombyx mori) (protein)
chain: MAVTSTRGIVNLKEKGHFERENARVEKYTLGDELPAQLSSLEIRPRKMSVPAYTIQRLTYNDRDLVLKFLRRFFFRDEPMNLAVNLLETPESRCTELDDYAAATLSDGVSVAAVDENGDYVGVIINGIVRREEVDYTDKSEDCPNPKFRRILKVLGHLDREARIWDKLPETCDSVLEIRIASTHSSWRGRGLMRVLCEEAERLAKAMGAGALRMDTTSAFSAAAAERLNYKMAFGVRYADLPYAPQPEAPHLEARVYIKEL
[1]
  Km: 65000 ± 16000 µM
  kcat: 0.31 ± 0.04 s⁻¹
  kcat/Km: 4.7 ± 1.2 M⁻¹ s⁻¹
[2]
  Km: 0.97 ± 0.12 µM
[3]
  Km: 0.92 ± 0.20 µM
  kcat: 0.66 ± 0.01 s⁻¹
  kcat/Km: 720000 ± 150000 M⁻¹ s⁻¹
[4]
  Km: 7000 ± 500 µM
  kcat: 0.72 ± 0.01 s⁻¹
  kcat/Km: 100 ± 7 M⁻¹ s⁻¹
[5]
  Km: 1.2 ± 0.67 µM
  kcat: 0.27 ± 0.02 s⁻¹
  kcat/Km: 240000 ± 130000 M⁻¹ s⁻¹
[6]
  Km: 84000 ± 12000 µM
  kcat: 2.7 ± 0.19 s⁻¹
  kcat/Km: 32 ± 5.3 M⁻¹ s⁻¹
[7]
  Km: 1.7 ± 0.51 µM
  kcat: 0.42 ± 0.02 s⁻¹
  kcat/Km: 240000 ± 70000 M⁻¹ s⁻¹
[8]
  Km: 1.1 ± 0.30 µM
  kcat: 0.51 s⁻¹
  kcat/Km: 490000 M⁻¹ s⁻¹
